Measured values: US20200085917A1 (UNIVERSITY OF PITTSBURGH OF THE COMMONWEALTH SYSTEM OF …, published 2020)

B1: Ociad2_IPI:IPI00112139.1 (other, mouse, UniProt Q9D8W7 1-154, looked up)
chain: MASVSTHGNQEKSPHLPPLSKQSLLFCPKSKLHIHRGEIAKIIRECQEESFWKRALPFSLISMLVTQGLVHQGYLAANPRFGSLPKVALAGLLGFGLGKASYIRVCQSKFHSFEDQLRGAGFGPEHNRHCLLTCEDCKTRRGLSEKAGSQPSAS
B2: Prdx3_IPI:IPI00116192.1 (other, mouse, UniProt P20108 63-257, looked up)
chain: TPAVTQHAPYFKGTAVVNGEFKELSLDDFKGKYLVLFFYPLDFTFVCPTEIVAFSDKANEFHDVNCEVVAVSVDSHFSHLAWINTPRKNGGLGHMNITLLSDITKQISRDYGVLLESAGIALRGLFIIDPNGVVKHLSVNDLPVGRSVEETLRLVKAFQFVETHGEVCPANWTPESPTIKPSPTASKEYFEKVHQ
B3: Isca2_IPI:IPI00120671.2 (other, mouse, UniProt Q9DCB8 9-154, looked up)
chain: LTAEAVRAVIPRRSGRLLAVFPRLLTRWETTSSIPEAGEGQIRLTDSCVQRLLEITEGSEFLRLQVEGGGCSGFQYKFSLDTVINPDDRVFEQGGARVVVDSDSLAFVKGAQVDFSQELIRSSFQVLNNPQAQQGCSCGSSFSVKV
B4: Cisd1_IPI:IPI00128346.1 (other, mouse, UniProt Q91WS0 1-108, looked up)
chain: MGLSSNSAVRVEWIAAVTFAAGTAALGYLAYKKFYAKENRTKAMVNLQIQKDNPKVVHAFDMEDLGDKAVYCRCWRSKKFPFCDGAHIKHNEETGDNVGPLIIKKKET
B5: Arf2_IPI:IPI00135730.1 (other, mouse, UniProt Q8BSL7 2-181, looked up)
chain: GNVFEKLFKSLFGKKEMRILMVGLDAAGKTTILYKLKLGEIVTTIPTIGFNVETVEYKNISFTVWDVGGQDKIRPLWRHYFQNTQGLIFVVDSNDRERVNEAREELTRMLAEDELRDAVLLVFVNKQDLPNAMNAAEITDKLGLHSLRQRNWYIQATCATSGDGLYEGLDWLSNQLKNQK
B6: Fis1_IPI:IPI00132217.1 (other, mouse, UniProt Q9CQ92 1-152, looked up)
chain: MEAVLNELVSVEDLKNFERKFQSEQAAGSVSKSTQFEYAWCLVRSKYNEDIRRGIVLLEELLPKGSKEEQRDYVFYLAVGNYRLKEYEKALKYVRGLLQTEPQNNQAKELERLIDKAMKKDGLVGMAIVGGMALGVAGLAGLIGLAVSKSKS

Biological target: T1, GST alone (UniProt P08515 1-218 = GST)
T1 construct: Negative control of the pull-downs; also called control GST
T1 sequence (P08515 whole entry): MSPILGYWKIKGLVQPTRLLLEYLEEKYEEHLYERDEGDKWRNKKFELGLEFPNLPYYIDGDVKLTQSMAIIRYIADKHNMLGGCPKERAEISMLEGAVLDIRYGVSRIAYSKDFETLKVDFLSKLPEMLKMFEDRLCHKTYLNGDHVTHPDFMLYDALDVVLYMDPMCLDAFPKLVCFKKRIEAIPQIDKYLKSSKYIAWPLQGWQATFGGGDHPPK
Assay: GST pull-down, LC-MS/MS
Description: Extracts were spun at 14,000 r.p.m. at 4° C., and clarified supernatants were incubated with glutathione 4B Sepharose beads (GE Healthcare) at 4° C. overnight. The glutathione beads were then washed extensively with ice-cold TNE buffer, and bound proteins were subjected to SDS-PAGE followed by immunoblotting analysis. For the samples subjected to mass spectrometry, glutathione bead-bound proteins from equal amounts (600 μg) of mitochondria were further washed with high stringency RIPA buffer following TNE buffer wash to decrease nonspecific interaction. Proteins were then eluted from the glutathione beads in SDS sample buffer, separated by SDS-PAGE and stained with Coomassie. Proteins in the gel were digested with trypsin and analyzed by mass spectrometry (LC-MS/MS) at the Taplin Biological Mass Spectrometry Facility (Harvard Medical School, Boston, Mass.).

| binding result | Binder |
| --- | --- |
| no binding | B1 |
| no binding | B2 |
| no binding | B3 |
| no binding | B4 |
| no binding | B5 |
| no binding | B6 |
